Test results reported in PMC4178188, “RIG-I Self-Oligomerization Is Either Dispensable or Very Transient for Signal Transduction”.

T1: RIG-I (hRIG-I) (human, UniProt O95786 1-925)
T1 sequence: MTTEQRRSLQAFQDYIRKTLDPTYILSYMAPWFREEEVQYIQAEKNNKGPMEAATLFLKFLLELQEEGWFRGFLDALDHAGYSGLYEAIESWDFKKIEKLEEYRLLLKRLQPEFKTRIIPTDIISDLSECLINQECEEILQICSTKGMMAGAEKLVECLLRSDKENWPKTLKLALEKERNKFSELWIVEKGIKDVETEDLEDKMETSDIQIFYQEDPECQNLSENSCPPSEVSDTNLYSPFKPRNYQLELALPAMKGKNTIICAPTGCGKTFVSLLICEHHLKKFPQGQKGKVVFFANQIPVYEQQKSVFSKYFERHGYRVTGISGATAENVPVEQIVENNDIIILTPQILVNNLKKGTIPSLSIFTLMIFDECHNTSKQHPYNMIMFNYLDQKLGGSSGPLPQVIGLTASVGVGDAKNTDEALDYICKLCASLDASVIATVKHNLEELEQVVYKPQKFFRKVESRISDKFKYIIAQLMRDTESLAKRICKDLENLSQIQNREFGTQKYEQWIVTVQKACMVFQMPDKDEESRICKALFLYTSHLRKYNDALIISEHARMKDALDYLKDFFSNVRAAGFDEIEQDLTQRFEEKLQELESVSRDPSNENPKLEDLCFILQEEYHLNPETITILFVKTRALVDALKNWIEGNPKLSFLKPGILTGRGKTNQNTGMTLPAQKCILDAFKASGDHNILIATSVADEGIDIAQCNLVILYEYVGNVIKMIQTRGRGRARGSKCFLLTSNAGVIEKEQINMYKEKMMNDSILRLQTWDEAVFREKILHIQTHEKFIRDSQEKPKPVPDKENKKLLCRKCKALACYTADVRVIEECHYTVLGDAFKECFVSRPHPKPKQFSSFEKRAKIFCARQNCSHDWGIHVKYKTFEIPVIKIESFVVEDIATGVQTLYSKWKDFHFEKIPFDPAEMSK


Assays:
[1] = biological target: T1, RIG-I (hRIG-I); assay: SEC-MALLS; 2 mM ATP analogue; complex 113 kDa, 1:1; SEC-MALLS: 37 mM RIG-I, 40 mM RNA (units as printed), 2 mM ATP analogue, S200 column; buffer, salt, pH and temperature not in the material; conditions: protein: recombinant; double-stranded side products or secondary structure possible
[2] = biological target: T1, RIG-I (hRIG-I); assay: SEC-MALLS; 2 mM ATP analogue; complex 110 kDa, 1:1; conditions: protein: recombinant; double-stranded side products or secondary structure possible

Binder | binding result [1] | binding result [2]
Measles leader 5'ppp-RNA (MeV-L) (ssRNA, 5'-triphosphate) RNA: GGACCAAACAAAGUUGGGUAAGGAUAGAUCAAUCAAUGAUCAUAUUCUAGUACACUUGAAUUC | binds | –
Rabies leader 5'ppp-RNA (RabV-L) (ssRNA, 5'-triphosphate) RNA: GGACGCUUAACAACAAAACCAGAGAAGAAAAAGACAGCGUCAAUUGCAAACGAAAAAUGUGC | – | binds
